Experimental data: PMC8791620 (Science Advances, 2022)
Read-outs that look alike come from different tables or passages of the source.

T1: Trs33 (subunit of core TRAPP/TRAPPI in TRAPPII) (S. cerevisiae, UniProt Q99394 1-268)
T1 sequence (looked up): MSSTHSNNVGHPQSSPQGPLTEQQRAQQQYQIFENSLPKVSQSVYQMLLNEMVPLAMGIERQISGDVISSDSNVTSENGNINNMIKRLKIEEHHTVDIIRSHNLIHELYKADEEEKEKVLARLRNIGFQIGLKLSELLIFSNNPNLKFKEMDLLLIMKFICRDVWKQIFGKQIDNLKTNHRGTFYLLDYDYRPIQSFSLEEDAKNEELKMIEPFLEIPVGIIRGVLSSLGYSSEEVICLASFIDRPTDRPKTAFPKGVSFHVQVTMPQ

T2: Trs130 (subunit of TRAPPII) (S. cerevisiae, UniProt Q03660 1-1102)
T2 sequence (looked up): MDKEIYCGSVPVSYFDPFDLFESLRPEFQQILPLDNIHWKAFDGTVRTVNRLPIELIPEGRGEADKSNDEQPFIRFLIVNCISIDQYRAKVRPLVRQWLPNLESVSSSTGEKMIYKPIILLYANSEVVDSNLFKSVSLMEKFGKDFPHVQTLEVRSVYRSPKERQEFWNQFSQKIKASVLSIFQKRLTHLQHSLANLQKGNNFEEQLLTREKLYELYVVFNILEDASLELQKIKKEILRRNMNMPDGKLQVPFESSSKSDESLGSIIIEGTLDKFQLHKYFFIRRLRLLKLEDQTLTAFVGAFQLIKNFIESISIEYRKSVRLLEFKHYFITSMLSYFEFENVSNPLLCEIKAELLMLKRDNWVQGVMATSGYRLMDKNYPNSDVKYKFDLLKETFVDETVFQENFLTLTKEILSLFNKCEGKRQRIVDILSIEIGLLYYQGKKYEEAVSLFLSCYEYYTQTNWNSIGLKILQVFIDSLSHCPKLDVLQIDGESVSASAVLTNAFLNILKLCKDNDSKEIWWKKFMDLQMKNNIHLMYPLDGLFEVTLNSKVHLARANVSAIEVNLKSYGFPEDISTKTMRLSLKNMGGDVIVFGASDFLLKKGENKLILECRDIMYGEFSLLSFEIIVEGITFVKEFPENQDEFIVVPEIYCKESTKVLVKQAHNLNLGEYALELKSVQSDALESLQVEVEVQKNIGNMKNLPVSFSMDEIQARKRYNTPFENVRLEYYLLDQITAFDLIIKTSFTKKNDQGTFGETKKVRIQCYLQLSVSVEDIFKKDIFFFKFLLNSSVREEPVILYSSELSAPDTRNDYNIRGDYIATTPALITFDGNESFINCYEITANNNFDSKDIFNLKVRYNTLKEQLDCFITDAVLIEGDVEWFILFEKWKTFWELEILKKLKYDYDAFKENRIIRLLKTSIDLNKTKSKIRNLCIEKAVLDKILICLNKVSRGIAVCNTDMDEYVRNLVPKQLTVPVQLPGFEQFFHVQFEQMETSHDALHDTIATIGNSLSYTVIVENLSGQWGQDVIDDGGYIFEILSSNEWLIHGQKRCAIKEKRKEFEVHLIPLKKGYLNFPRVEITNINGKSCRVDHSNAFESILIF

T3: Trs120 (3xFLAG-tagged, subunit of TRAPPII) (S. cerevisiae, UniProt Q04183 1-1289)
T3 sequence: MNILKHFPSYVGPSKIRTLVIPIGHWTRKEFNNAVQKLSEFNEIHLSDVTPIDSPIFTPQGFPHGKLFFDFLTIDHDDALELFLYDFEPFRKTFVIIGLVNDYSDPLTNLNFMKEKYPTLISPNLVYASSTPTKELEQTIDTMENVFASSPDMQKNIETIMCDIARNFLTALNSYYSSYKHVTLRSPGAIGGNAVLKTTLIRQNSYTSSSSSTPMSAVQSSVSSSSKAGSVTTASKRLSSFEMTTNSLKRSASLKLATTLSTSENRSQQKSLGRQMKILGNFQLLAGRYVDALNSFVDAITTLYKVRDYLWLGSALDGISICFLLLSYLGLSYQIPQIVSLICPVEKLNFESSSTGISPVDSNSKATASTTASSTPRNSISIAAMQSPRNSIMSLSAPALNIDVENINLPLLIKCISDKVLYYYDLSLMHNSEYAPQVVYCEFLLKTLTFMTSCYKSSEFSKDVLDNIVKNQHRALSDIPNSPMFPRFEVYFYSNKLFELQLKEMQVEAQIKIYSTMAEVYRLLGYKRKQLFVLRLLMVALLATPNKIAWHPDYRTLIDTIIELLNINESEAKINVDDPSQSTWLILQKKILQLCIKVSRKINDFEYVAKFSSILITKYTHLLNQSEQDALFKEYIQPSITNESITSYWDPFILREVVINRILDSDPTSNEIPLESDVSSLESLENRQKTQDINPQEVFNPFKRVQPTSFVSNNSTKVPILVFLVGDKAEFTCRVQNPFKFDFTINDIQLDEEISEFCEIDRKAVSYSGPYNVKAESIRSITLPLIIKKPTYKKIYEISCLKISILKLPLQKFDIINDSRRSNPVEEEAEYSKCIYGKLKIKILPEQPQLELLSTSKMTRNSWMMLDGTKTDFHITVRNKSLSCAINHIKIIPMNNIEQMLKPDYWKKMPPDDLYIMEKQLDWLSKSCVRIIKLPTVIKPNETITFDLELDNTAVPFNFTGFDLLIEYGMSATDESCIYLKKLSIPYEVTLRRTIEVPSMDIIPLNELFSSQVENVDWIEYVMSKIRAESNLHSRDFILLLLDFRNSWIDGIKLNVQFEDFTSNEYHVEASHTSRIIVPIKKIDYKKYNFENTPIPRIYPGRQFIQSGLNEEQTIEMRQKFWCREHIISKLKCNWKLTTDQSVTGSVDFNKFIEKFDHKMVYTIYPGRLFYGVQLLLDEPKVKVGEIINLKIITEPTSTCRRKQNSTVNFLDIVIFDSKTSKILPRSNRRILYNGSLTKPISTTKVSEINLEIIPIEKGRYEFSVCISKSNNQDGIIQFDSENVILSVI

T4: Trs23 (subunit of core TRAPP/TRAPPI in TRAPPII) (S. cerevisiae, UniProt Q03784 1-219)
T4 sequence (looked up): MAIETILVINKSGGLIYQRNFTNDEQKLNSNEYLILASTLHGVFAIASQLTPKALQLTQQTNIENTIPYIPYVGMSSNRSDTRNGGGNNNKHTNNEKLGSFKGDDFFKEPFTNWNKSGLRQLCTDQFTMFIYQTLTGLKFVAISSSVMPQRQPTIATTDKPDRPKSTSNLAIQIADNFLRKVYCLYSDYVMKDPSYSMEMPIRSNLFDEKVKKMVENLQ

B1: Tca17 (subunit of TRAPPII) (natural protein, S. cerevisiae, UniProt P32613 1-152, looked up)
chain: MSLRPCFVSLIDESDKPILIYVPNEAENEMNDVLKYNVLSNISLDYFESALVEWHSLDSKPLLKSIFQLEGVSVFAMLIKQTGLKIVIGFEQKSLSGADDEFEAINQIFETVRKIYIRVKCNPLLVSGDEKSIIKSLERKFDELFISTEVEL
B2: Trs20 (subunit of core TRAPP/TRAPPI in TRAPPII) (natural protein, S. cerevisiae, UniProt P38334 1-175, looked up)
chain: MPQYFAIIGKKDNPVYEIEFTNAENPQGFPQDLKELNPFILHASLDIVEDLQWQINPTSQLNGNGGNGSNGGGGFLRSRAVNNTDNCYLGKVDHFYGLAITAYISYSGMKFVMIHGNSANSSVVIDDNNMRSFYQEVHELYVKTLMNPFYKITDPIRSPAFDSRVRTLARKHLSK
B3: Bet3 (subunit of core TRAPP/TRAPPI in TRAPPII) (natural protein, S. cerevisiae, UniProt P36149 1-193, looked up)
chain: MVSTTQSRSLKAMGEEIWKNKTEKINTELFTLTYGSIVAQLCQDYERDFNKVNDHLYSMGYNIGCRLIEDFLARTALPRCENLVKTSEVLSKCAFKIFLNITPNITNWSHNKDTFSLILDENPLADFVELPMDAMKSLWYSNILCGVLKGSLEMVQLDCDVWFVSDILRGDSQTEIKVKLNRILKDEIPIGED
B4: His-sumo-Ypt32 (wild type) (enzyme, S. cerevisiae, UniProt P51996 1-222, looked up)
chain: MSNEDYGYDYDYLFKIVLIGDSGVGKSNLLSRFTTDEFNIESKSTIGVEFATRTIEVENKKIKAQIWDTAGQERYRAITSAYYRGAVGALIVYDISKSSSYENCNHWLTELRENADDNVAVGLIGNKSDLAHLRAVPTDEAKNFAMENQMLFTETSALNSDNVDKAFRELIVAIFQMVSKHQVDLSGSGTNNMGSNGAPKGPTISLTPAPKEDKKKKSSNCC
B5: Trs65 (subunit of TRAPPII) (natural protein, S. cerevisiae, UniProt P32893 1-560, looked up)
chain: MECFVPLRCDLDGSNIEQLRQSHLSRKFIIFDEQLNLWLWFQGNSQENKRFVLQNMIILINEAQVTRTSTIDDYFTQVENNENLWRLKNDCCSKILFKSNVVMNNGYNNQIKFVFEYKSVDANFNNQDSLQDPQAKYTLDKYSSEEILPSFEPVYSWSSAATKSSKNTNNHLEKNNRATHRVSSKNSEVHEADVSRNPNTFTLKLQYPIFSLLNMRLRNISLKSEHCILSSLDFQTSKASEQLTKKFIYPQEHNSFLKLNFQEISYKLIDGTSQIELDPICPLKVPLTAFSYDSISATFKLVLLPKSTQPHRVKITLAYELELHPNLKLPVRTSWETEVTLKRSMPISSTSSQYSSNNNNTNHSASFNGAANNVNSGGLANLRLGGVSSSRFSLGAASTTSLVNSKLSNVKFKFINSNIKVIKGEKFTMRLQIINSSSSPLDLVVYYNNTINPIPSANNVRNSNGINNCGMNNGTIPNSPLTLENQYQLHNKYRKIAEGIILLSNDYKIPVVPPRETYFADLRFIGIMSGYYGTLSGLKVLDLNTNELIEVGNGASVLIQ
B6: Trs31 (subunit of core TRAPP/TRAPPI in TRAPPII) (natural protein, S. cerevisiae, UniProt Q03337 1-283, looked up)
chain: MSQRIIQPSASDQQFPGKSDGYEYTVGPKQAITSEASTTYIPSRIYSESLLFKRQEASLSAMAFLFQEMISQLHRTCKTAGDFETKLSDYGHNIGIRLLELLNFRASVSPSSLPRASAFLSQNESSSKLSNASNSPGMLANSSTATSASANERLQEKQTESLSNYITKMRRRDLKILDILQFIHGTLWSYLFNHVSDDLVKSSERDNEYMIVDNFPTLTQFIPGENVSCEYFVCGIIKGFLFNAGFPCGVTAHRMPQGGHSQRTVYLIQFDRQVLDREGLRFG

How the values were obtained:
[1] = molecular target: T1, Trs33 (subunit of core TRAPP/TRAPPI in …); experiment: cryo-EM structure
[2] = molecular target: T2, Trs130 (subunit of TRAPPII); experiment: cryo-EM structure
[3] = molecular target: T3, Trs120 (3xFLAG-tagged, subunit of …); experiment: cryo-EM structure
[4] = molecular target: B6; experiment: cryo-EM structure
[5] = molecular target: T4, Trs23 (subunit of core TRAPP/TRAPPI in …); experiment: cryo-EM structure
[6] = molecular target: B6; experiment: cryo-EM structure; remark: listed apart in the source
[7] = molecular target: T3, Trs120 (3xFLAG-tagged, subunit of …); experiment: cross-linking

binding result [1]	binding result [2]	binding result [3]	binding result [4]	Binder	further results
binds	binds	–	–	B1	–
–	–	binds	binds	B2	–
binds	–	–	binds	B3	binding result [5]: binds
–	–	–	–	B4	binding result [6]: binds
–	binds	binds	–	B5	–
–	–	–	–	B6	binding result [7]: binds
